The values that follow come from patent US20040185460.

The target in series [1] is GST-MKK4(K113A) [GST: P08515].
The target of series [2] is myelin basic protein (UBI #13-104).
Series [3] addresses GST-MKK7β1(K149A), O14733.
In a further series the target is T1, inactivated MKK4, P45985.
T1 chain: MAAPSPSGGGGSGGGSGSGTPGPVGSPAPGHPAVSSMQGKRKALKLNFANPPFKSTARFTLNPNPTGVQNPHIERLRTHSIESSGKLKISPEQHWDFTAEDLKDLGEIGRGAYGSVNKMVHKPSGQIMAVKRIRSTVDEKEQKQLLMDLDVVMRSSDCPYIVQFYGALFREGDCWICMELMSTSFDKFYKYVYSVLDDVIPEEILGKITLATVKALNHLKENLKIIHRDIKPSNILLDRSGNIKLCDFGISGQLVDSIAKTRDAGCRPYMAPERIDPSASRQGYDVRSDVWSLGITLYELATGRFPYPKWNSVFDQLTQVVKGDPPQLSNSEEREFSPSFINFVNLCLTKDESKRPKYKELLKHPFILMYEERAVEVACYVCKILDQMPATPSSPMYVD

B1: inactivated MKK4 (protein)
chain: MAAPSPSGGGGSGGGSGSGTPGPVGSPAPGHPAVSSMQGKRKALKLNFANPPFKSTARFTLNPNPTGVQNPHIERLRTHSIESSGKLKISPEQHWDFTAEDLKDLGEIGRGAYGSVNKMVHKPSGQIMAVKRIRSTVDEKEQKQLLMDLDVVMRSSDCPYIVQFYGALFREGDCWICMELMSTSFDKFYKYVYSVLDDVIPEEILGKITLATVKALNHLKENLKIIHRDIKPSNILLDRSGNIKLCDFGISGQLVDSIAKTRDAGCRPYMAPERIDPSASRQGYDVRSDVWSLGITLYELATGRFPYPKWNSVFDQLTQVVKGDPPQLSNSEEREFSPSFINFVNLCLTKDESKRPKYKELLKHPFILMYEERAVEVACYVCKILDQMPATPSSPMYVD
As to B1, in the series with GST-JNK1β1(K55A), P45983, the “phosphorylation of GST-JNK1β1(K55A) by activated MKK4 (phospho-specific JNK antibody, fluorescence)” value is “MKK4 was activated and was able to phosphorylate its protein substrate GST-JNK1β1(K55A)”.

B2: baculoviral human GST-MLK7KD (protein)
chain: PANYVAPCRPAASPAPPPSRPSSPVHVAFERLELKELIGAGGFGQVYRATWQGQEVAVKAARQDPEQDAAAAAESVRREARLFAMLRHPNIIELRGVCLQQPHLCLVLEFARGGALNRALAAANAAPDPRAPGPRRARRIPPHVLVNWAVQIARGMLYLHEEAFVPILHRDLKSSNILLLEKIEHDDICNKTLKITDFGLAREWHRTTKMSTAGTYAWMAPEVIKSSLFSKGSDIWSYGVLLWELLTGEVPYRGIDGLAVAYGVAVNKLTLPIPSTCPEPFAKLMKECWQQDPHIRPSFALILEQLTAIEGAVMTEMPQESFHS
In the case of B2, in series [1], the “phosphorylation of substrate coated on the plate (fluorescence units, ELISA-based assay with phospho-threonine antibody, time-resolved fluorescence)” value was “both forms of baculoviral GST-MLK7 catalyzed the phosphorylation of the two MKK protein substrates, GST-MKK4(K113A) and GST-MKK7(K149A)”; the “specific activity, ratio against GST-MLK7KD/LZ (ELISA-based phosphorylation assay)” value was “GST-MLK7KD displaying about 2× higher activity than GST-MLK7KD/LZ”. For the same protein, the “phosphorylation of myelin basic protein (radioactive counts, Multiscreen TCA in-plate assay)” value in series [2] is “Both GST-MLK7KD and GST-MLK7KD/LZ were able to phosphorylate myelin basic protein”. For the same protein, in series [3], the “phosphorylation of substrate coated on the plate (fluorescence units, ELISA-based assay with phospho-threonine antibody, time-resolved fluorescence)” value is “both forms of baculoviral GST-MLK7 catalyzed the phosphorylation of the two MKK protein substrates, GST-MKK4(K113A) and GST-MKK7(K149A)”; the “specific activity, ratio against GST-MLK7KD/LZ (ELISA-based phosphorylation assay)” value is recorded as “GST-MLK7KD displaying about 2× higher activity than GST-MLK7KD/LZ”. Besides, the “in vitro kinase cascade: phosphorylation/activation of MKK4, read as phosphorylated GST-JNK1β1(K55A) (phospho-specific JNK antibody, fluorescence)” value in the series with inactivated MKK4, P45985 was “both GST-MLK7KD and GST-MLK7KD/LZ were able to phosphorylate MKK4 and as a consequence of this phosphorylation event, MKK4 was activated”.

B3: baculoviral GST-MLK3KD (protein)
chain: LRLEEVIGIGGFGKVYRGSWRGELVAVKAARQDPDEDISVTAESVRQEARLFAMLAHPNIIALKAVCLEEPNLCLVMEYAAGGPLSRALAGRRVPPHVLVNWAVQIARGMHYLHCEALVPVIHRDLKSNNILLLQPIESDDMEHKTLKITDFGLAREWHKTTQMSAAGTYAWMAPEVIKASTFSKGSDVWSFGVLLWELLTGEVPYRGIDCLAVAYGVAVNKLTLPIPSTCPEPFAQLMADCWAQDPHRRPDFASILQQLEAL
Turning to B3, the “phosphorylation of substrate coated on the plate (ELISA-based assay, time-resolved fluorescence)” value in series [1] and in series [3] was “both GST-MLK7 forms were less active than GST-MLK3KD (control enzyme)” each time. The “phosphorylation of myelin basic protein (radioactive counts, Multiscreen TCA in-plate assay)” value in series [2] is “Baculoviral GST-MLK3KD was used as the control enzyme in this analysis to show phosphorylation of myelin basic protein by a member of the mixed lineage kinase family”.
